Test results: the supplement of paper PMC9876800

Test system: peptide library, one residue held at a place counted from the S/T acceptor
Assay: relative phosphorylation of the sub-library (ratio to the mean residue at this position); human; higher = residue favoured
In short: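 Purified recombinant kinases, either human or orthologue constructs, were incubated in 384-well plates with biotinylated degenerate peptide sub-libraries. Each sub-library fixed one residue at one position around a central Ser/Thr. Peptides at 50 μM and 50 μM ATP spiked with γ-32P-ATP were used for 90 min under kinase-specific conditions, and spots on streptavidin membranes were phosphorimaged and quantified by densitometry. Relative sub-library phosphorylation is expressed as a ratio to the mean residue at that position.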

Sequence of CHEK2, construct: Full length (O96017 whole entry, looked up): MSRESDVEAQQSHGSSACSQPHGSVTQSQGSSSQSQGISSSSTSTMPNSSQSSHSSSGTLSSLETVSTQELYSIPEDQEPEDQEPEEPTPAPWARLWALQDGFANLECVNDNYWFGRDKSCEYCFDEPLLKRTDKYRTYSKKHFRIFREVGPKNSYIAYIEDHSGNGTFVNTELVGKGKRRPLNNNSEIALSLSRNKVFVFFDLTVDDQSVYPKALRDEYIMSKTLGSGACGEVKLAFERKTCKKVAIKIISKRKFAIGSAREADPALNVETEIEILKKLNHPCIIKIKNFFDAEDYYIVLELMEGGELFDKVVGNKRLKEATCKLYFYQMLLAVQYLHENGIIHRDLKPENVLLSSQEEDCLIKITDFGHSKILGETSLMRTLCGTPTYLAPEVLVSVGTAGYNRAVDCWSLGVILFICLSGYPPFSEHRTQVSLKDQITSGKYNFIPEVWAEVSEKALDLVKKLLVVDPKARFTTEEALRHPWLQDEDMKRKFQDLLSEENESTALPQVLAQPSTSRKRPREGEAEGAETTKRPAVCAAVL
Sequence of CIT, construct: aa1-449 (O14578 1-449, looked up): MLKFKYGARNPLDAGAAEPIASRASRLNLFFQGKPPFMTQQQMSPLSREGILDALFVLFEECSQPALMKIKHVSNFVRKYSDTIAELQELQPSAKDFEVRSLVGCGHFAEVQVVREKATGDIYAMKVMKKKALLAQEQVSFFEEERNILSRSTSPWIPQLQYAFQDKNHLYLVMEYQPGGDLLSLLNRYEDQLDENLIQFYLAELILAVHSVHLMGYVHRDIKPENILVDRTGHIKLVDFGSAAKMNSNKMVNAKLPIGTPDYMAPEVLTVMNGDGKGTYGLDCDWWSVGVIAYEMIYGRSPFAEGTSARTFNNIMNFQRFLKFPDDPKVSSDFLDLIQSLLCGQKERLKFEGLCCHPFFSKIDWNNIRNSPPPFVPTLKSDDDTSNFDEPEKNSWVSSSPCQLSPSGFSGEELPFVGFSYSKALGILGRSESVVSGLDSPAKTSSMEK

CHEK2, construct: Full length (from UniProt O96017)
relative phosphorylation
Conditions | at +1 | at +2 | at +3 | at +4 | at -1 | at -2 | at -3 | at -4 | at -5
A fixed | 0.589 | 0.731 | 0.81 | 0.837 | 0.816 | 1.26 | 0.562 | 0.987 | 0.172
D fixed | 0.317 | 0.397 | 0.484 | 0.53 | 0.702 | 0.276 | 0.1 | 0.367 | 0.236
E fixed | 0.402 | 0.382 | 0.407 | 0.541 | 0.383 | 0.785 | 0.136 | 0.839 | 0.307
F fixed | 1.88 | 1.06 | 1.33 | 0.985 | 0.809 | 0.672 | 0.197 | 0.895 | 1.42
G fixed | 0.741 | 0.784 | 0.818 | 0.987 | 0.707 | 0.679 | 0.275 | 0.743 | 0.514
H fixed | 0.892 | 1.43 | 1.05 | 1.27 | 1.21 | 1.01 | 0.614 | 0.953 | 0.619
I fixed | 1.51 | 0.934 | 0.975 | 0.941 | 0.81 | 0.598 | 0.199 | 0.924 | 1.7
K fixed | 1.02 | 1.12 | 1.16 | 1.33 | 1.71 | 1.53 | 2.26 | 1.63 | 0.694
L fixed | 1.41 | 0.851 | 1.02 | 0.859 | 1.28 | 0.843 | 0.217 | 1.02 | 2.42
M fixed | 1.5 | 0.978 | 1.04 | 0.929 | 1.15 | 1.37 | 0.256 | 1.17 | 1.55
N fixed | 0.93 | 0.941 | 0.889 | 1.14 | 1.61 | 0.832 | 0.208 | 0.651 | 0.491
P fixed | 0.389 | 0.946 | 0.956 | 1.04 | 1.06 | 0.219 | 0.177 | 0.548 | 1.03
Q fixed | 0.877 | 0.801 | 0.857 | 0.945 | 0.84 | 1.71 | 0.543 | 1.09 | 0.815
R fixed | 1.34 | 1.97 | 1.53 | 1.65 | 1.63 | 2.92 | 10.5 | 2.23 | 1.52
V fixed | 1.04 | 0.875 | 0.848 | 0.731 | 0.777 | 0.621 | 0.205 | 1.1 | 1.39
W fixed | 1.07 | 1.24 | 1.44 | 1.17 | 0.587 | 0.639 | 0.284 | 0.807 | 0.914
Y fixed | 1.09 | 1.55 | 1.39 | 1.12 | 0.924 | 1.04 | 0.265 | 1.05 | 1.19
pThr fixed | 0.96 | 1.06 | 0.653 | 0.586 | 0.354 | 0.477 | 0.214 | 0.662 | 0.472
pTyr fixed | 0.529 | 0.489 | 0.659 | 0.575 | 0.603 | 0.4 | 0.178 | 0.574 | 0.725

CIT, construct: aa1-449 (from UniProt O14578)
relative phosphorylation
Conditions | at +1 | at +2 | at +3 | at +4 | at -1 | at -2 | at -3 | at -4 | at -5
A fixed | 0.788 | 1.01 | 0.8 | 0.784 | 0.721 | 0.715 | 0.553 | 1 | 0.448
D fixed | 0.453 | 0.586 | 0.789 | 0.886 | 0.385 | 0.254 | 0.176 | 0.422 | 0.299
E fixed | 0.373 | 0.517 | 0.638 | 0.851 | 0.372 | 0.28 | 0.171 | 0.504 | 0.276
F fixed | 1.34 | 1 | 1.37 | 0.882 | 0.778 | 0.406 | 0.259 | 0.622 | 0.767
G fixed | 0.937 | 2.04 | 1.1 | 1.13 | 0.905 | 0.435 | 0.382 | 0.931 | 0.498
H fixed | 1.24 | 1.3 | 1.67 | 1.15 | 1.75 | 0.874 | 0.797 | 0.997 | 0.804
I fixed | 0.914 | 0.884 | 0.866 | 0.948 | 0.394 | 0.693 | 0.251 | 0.612 | 1.09
K fixed | 0.779 | 0.694 | 0.781 | 0.858 | 2.2 | 3.1 | 1.76 | 2.77 | 1.75
L fixed | 1.02 | 0.768 | 0.995 | 1.01 | 0.874 | 0.826 | 0.25 | 0.74 | 0.89
M fixed | 1.14 | 0.77 | 0.889 | 1.03 | 0.888 | 0.88 | 0.303 | 0.801 | 0.603
N fixed | 1.41 | 1.06 | 0.882 | 1.14 | 1.17 | 0.779 | 0.4 | 0.735 | 0.465
P fixed | 0.461 | 1.36 | 1.23 | 1.43 | 1.39 | 0.42 | 0.739 | 0.978 | 0.631
Q fixed | 1.15 | 0.762 | 0.931 | 1.04 | 0.969 | 1.03 | 0.7 | 0.924 | 0.72
R fixed | 1.05 | 0.907 | 0.763 | 0.874 | 1.85 | 4.68 | 9.39 | 3.11 | 5.94
V fixed | 0.734 | 0.86 | 0.816 | 0.805 | 0.506 | 0.838 | 0.299 | 0.683 | 0.523
W fixed | 1.55 | 1.16 | 1.31 | 1.21 | 0.682 | 0.407 | 0.302 | 0.571 | 0.591
Y fixed | 1.66 | 1.33 | 1.17 | 0.979 | 1.17 | 0.389 | 0.272 | 0.598 | 0.707
pThr fixed | 0.466 | 0.609 | 0.878 | 1.12 | 0.349 | 0.323 | 0.259 | 0.491 | 0.405
pTyr fixed | 0.784 | 0.65 | 0.802 | 0.925 | 0.34 | 0.333 | 0.226 | 0.395 | 0.554
